Measured values reported in patent US20250154238A1, “METHODS AND COMPOSITIONS FOR TREATING AND PREVENTING FIBROSIS” (YALE UNIVERSITY, priority 2022, published 2025).

How the values were obtained:
[1] = molecular target: recombinant mouse epiregulin (mouse) (UniProt Q61521)
[2] = molecular target: recombinant human epiregulin containing the epidermal growth factor (EGF) domain (R&D Biosciences Cat #1195-EP) (human) (UniProt O14944); assay: cell-based or functional assay
Sequence of recombinant human epiregulin containing the epidermal growth factor (EGF) domain (R&D Biosciences Cat #1195-EP) (human) (O14944 63-108 limits assumed): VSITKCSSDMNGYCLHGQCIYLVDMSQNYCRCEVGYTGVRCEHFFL

Sequence of recombinant mouse epiregulin (mouse) (Q61521 56-101 limits assumed): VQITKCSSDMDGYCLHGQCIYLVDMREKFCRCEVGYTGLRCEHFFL

IC50 of inhibition of HFF proliferation induced by 100 ng/ml rmEreg (GFP fluorescence) [1]: 0.1 µg/mL
IC50 of inhibition of epiregulin-induced HFF proliferation (rhEreg 100 ng/ml) [2]: 0.16 µg/mL
Substance: rat anti-human/mouse neutralizing epiregulin antibody (R&D Systems MAB1068, clone 189611)
